Test results as given in US20230340064A1 (published 2023).

T1: titin peptide on HLA-A*01:01 (human)
T1 peptide: ESDPIVAQY

T2: MAGE-A3 peptide on HLA-A*01:01 (human)
T2 peptide: EVDPIGHLY


Assays:
[1] = target: T1, titin peptide on HLA-A*01:01; test: cytokine release
[2] = target: T2, MAGE-A3 peptide on HLA-A*01:01; test: multimer staining
Excerpt: CD8 T cells were isolated from PBMCs of a healthy donor and transduced with three different MAGE-A3-reactive TCRs. Transduced CD8⁺ T cells were enriched by FACS using the constant beta 1 region as a marker for transduction. After expansion of these cells, they were stained either with a MAGE-A3EVD-MHC-multimer (right panel) or antibodies against CD8 and Cß1 (left panel) and analyzed by flow cytometry. Populations were gated on single live cells.
Sequences of TCR-α and TCR-β chains of MAGE-A3-reactive T-cell clones were identified by Next Generation Sequencing and after exchanging the constant TCR regions by their minimal-murinized counterparts cloned into the retroviral vector pES.12-6. For the β chain the Cß1 sequence was used. PBMCs of three healthy donors were isolated by ficoll gradient centrifugation. CD8-positive Cß1-negative T-cells were enriched by negative magnetic selection (Miltenyi) and stimulated in non-tissue culture 24-well plates with plate bound antibodies specific for CD3 and CD28. Amphotropic retroviral particles were produced by transfection of HEK293T cells with the respective TCR encoding retroviral plasmid and two expression plasmids. Three days after stimulation, CD8-positive Cß1-negative T cells were transduced and on day ten enriched for transduced CD8⁺ cells by MACS-separation using the Cβ1 constant beta region as a marker for transduction and then expanded by REP. Transgenic T cells were stained either with an HLA-A1-restricted MAGE-A3EVD-MHC-multimer (MAGE-A3, […]; immuneAware) or antibodies against CD8 and the constant β1 region.

[3] = target: HLA-A1-restricted MAGE-A3EVD-MHC-multimer (MAGE-A3, …; immuneAware) (human); test: flow cytometry, MHC-multimer staining of TCR-transduced CD8+ T cells

Binder | binding result [1] | binding result [2] | percent of T cells binding the MAGE-A3EVD-MHC-multimer [3] [%]
TCR1 (TCR, V domains shown) Valpha: KQEVTQIPAALSVPEGENLVLNCSFTDSAIYNLQWFRQDPGKGLTSLLLIQSSQREQTSGRLNASLDKSSGRSTLYIAASQPGDSATYLCAVIEYGNKLVFGAGTILRVKS Vbeta: DAMVIQNPRYQVTQFGKPVTLSCSQTLNHNVMYWYQQKSSQAPKLLFHYYDKDFNNEADTPDNFQSRRPNTSFCFLDIRSPGLGDAAMYLCATSWDRGYEQFFGPGTRLTVL | no recognition | recognises | –
TCR_2 (MAGE-A3-reactive TCR, transgenically expressed on CD8+ T cells) (TCR, V domains shown) V domain 1: KQEVTQIPAALSVPEGENLVLNCSFTDSAIYNLQWFRQDPGKGLTSLLLIQSSQREQTSGRLNASLDKSSGRSTLYIAASQPGDSATYLCAVRWETSGSRLTFGEGTQLTVNP V domain 2: DSGVTQTPKHLITATGQRVTLRCSPRSGDLSVYWYQQSLDQGLQFLIQYYNGEERAKGNILERFSAQQFPDLHSELNLSSLELGDSALYFCASSVGGGYEQYFGPGTRLTVTE | – | – | 20
TCR2 (TCR, V domains shown) Valpha: KQEVTQIPAALSVPEGENLVLNCSFTDSAIYNLQWFRQDPGKGLTSLLLIQSSQREQTSGRLNASLDKSSGRSTLYIAASQPGDSATYLCAVRWETSGSRLTFGEGTQLTVNP Vbeta: DSGVTQTPKHLITATGQRVTLRCSPRSGDLSVYWYQQSLDQGLQFLIQYYNGEERAKGNILERFSAQQFPDLHSELNLSSLELGDSALYFCASSVGGGYEQYFGPGTRLTVT | no recognition | recognises | –
TCR3 (TCR, V domains shown) Valpha: AQKVTQAQTEISVVEKEDVTLDCVYETRDTTYYLFWYKQPPSGELVFLIRRNSFDEQNEISGRYSWNFQKSTSSFNFTITASQVVDSAVYFCALSEALGYSSASKIIFGSGTRLSIRP Vbeta: GAGVSQSPSNKVTEKGKDVELRCDPISGHTALYWYRQSLGQGLEFLIYFQGNSAPDKSGLPSDRFSAERTGGSVSTLTIQRTQQEDSAVYLCASSDPMSGAQETQYFGPGTRLLVL | no recognition | recognises | –
